# Test results reported in paper PMC5882645, “NMR Structure, Dynamics and Interactions of the Integrin β2 Cytoplasmic Tail with Filamin Domain IgFLNa21” (Scientific Reports, 2018).
# No end group written: not given here.
# T1: IgFLNa21 domain of filamin A (Gly2236-Ser2329) (UniProt P21333 2236-2329)
# T1 construct: filamin A, Ig-like repeat 21 (IgFLNa21), residues Gly2236-Ser2329; The same range also stands as the C-terminal part of the hybrid chain m5 (cloned in pET14b); the rows on the hybrid use m1 for this domain; also called IgFLNa21 filamin; wild-type IgFLNa21; source: E. coli rosetta, synthetic gene in pET24a, 15N/13C-labelled, purified (Ni-NTA, size-exclusion chromatography)
# T1 sequence (looked up): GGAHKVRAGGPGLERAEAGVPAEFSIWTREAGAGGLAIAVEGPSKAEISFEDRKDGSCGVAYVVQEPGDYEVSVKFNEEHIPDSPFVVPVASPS
# Columns and labels:
# [1] = target: T1, IgFLNa21 domain of filamin A …; assay: NMR structure; solution structure of the hybrid chain (β2 CT 752-763 joined to IgFLNa21 by the linker …), 300 μM, 298 K; CYANA, refined by X-plor-NIH with explicit water; conditions: both partners purified
# [2] = target: T1, IgFLNa21 domain of filamin A …; assay: NMR titration; 15N-1H HSQC of IgFLNa21 (100 μM) with sequential additions of peptide at 1:0, 1:1, 1:2 and 1:3 ratios; 298 K; 25 mM sodium phosphate, 5 mM NaCl, 2 mM DTT, 10% D2O, pH 6.5; conditions: both partners purified
binding result [1],binding result [2],Binder
binds,,"PLFKSATTTVMN (also: fused via GASGSGASGS linker to IgFLNa21 N-terminus, also called β2 CT peptide; β2 CT part of hybrid IgFLNa21; source: E. coli rosetta, purified (Ni-NTA, size-exclusion chromatography) as the N-terminal part of the hybrid chain) [C-terminal filamin-binding region (P752-N763) of integrin β2 CT, as it stands in the hybrid IgFLNa21]"
,binds,"KALIHLSDLREYRRFEKEKLKSQWNNDNPLFKSATTTVMNPKFAES (peptide, UniProt P05107 724-769, looked up, integrin β2 cytoplasmic tail, residues 724-769; also called full length integrin β2 CT; integrin β2 cytoplasmic tail; source: synthetic peptide, bought: GLBioChem (Shanghai), further purified by reverse phase HPLC) [Synthetic integrin full-length β2-CT (residues 724-769)]"
